T1: Exd/Hth-HM (UniProt P40427;O46339 1-376;127-211)
T1 sequence 1: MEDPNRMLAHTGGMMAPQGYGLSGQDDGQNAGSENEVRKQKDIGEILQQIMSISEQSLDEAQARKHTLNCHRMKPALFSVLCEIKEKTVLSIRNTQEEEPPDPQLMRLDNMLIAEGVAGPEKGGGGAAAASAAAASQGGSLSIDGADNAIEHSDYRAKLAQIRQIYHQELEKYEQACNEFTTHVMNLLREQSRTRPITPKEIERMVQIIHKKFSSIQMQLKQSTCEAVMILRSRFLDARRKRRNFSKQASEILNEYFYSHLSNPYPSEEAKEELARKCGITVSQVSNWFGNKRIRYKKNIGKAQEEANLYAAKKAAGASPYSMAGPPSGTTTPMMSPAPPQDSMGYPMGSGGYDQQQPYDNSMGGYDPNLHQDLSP
T1 sequence 2: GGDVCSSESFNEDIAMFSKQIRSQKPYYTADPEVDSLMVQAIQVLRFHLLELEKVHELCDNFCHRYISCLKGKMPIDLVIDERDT

B1: motif-30 Hox2 mutant (dsDNA)
DNA 1: GAAACAGGATAACCAGGACTAATCC
DNA 2: GGATTAGTCCTGGTTATCCTGTTTC
B2: motif-30 Hox1+2 mutant (dsDNA)
DNA 1: GAAACAGGAGAACCAGGACTAATCC
DNA 2: GGATTAGTCCTGGTTCTCCTGTTTC
B3: motif-31 (dsDNA)
DNA 1: ACACAATTTTCTAAGATCCACTGGAATCGGTATGCCGATAGTT
DNA 2: AACTATCGGCATACCGATTCCAGTGGATCTTAGAAAATTGTGT
B4: motif-33 (dsDNA)
DNA 1: TACTGCCTGATTAGTGTAAATAATTGCCAGTCCTTG
DNA 2: CAAGGACTGGCAATTATTTACACTAATCAGGCAGTA
B5: motif-30 WT (dsDNA)
DNA 1: GAAACAGGATAACCATAACTAATCC
DNA 2: GGATTAGTTATGGTTATCCTGTTTC
B6: motif-30 Exd mutant (dsDNA)
DNA 1: GAAACAGGATAACCATAACTGCTCC
DNA 2: GGAGCAGTTATGGTTATCCTGTTTC
B7: motif-25 (dsDNA)
DNA 1: CGGGATATCACCAAACCATAGAAAATTTGCGGTACA
DNA 2: TGTACCGCAAATTTTCTATGGTTTGGTGATATCCCG
B8: motif-27 (dsDNA)
DNA 1: TATATGTGGAACCACCTTGAAAGTCTACTGCCTGATTAGT
DNA 2: ACTAATCAGGCAGTAGACTTTCAAGGTGGTTCCACATATA
B9: motif-28 (dsDNA)
DNA 1: AAGCCGAGCCTGAATCAGGTACTCAAATTGTCGC
DNA 2: GCGACAATTTGAGTACCTGATTCAGGCTCGGCTT
B10: motif-32 (dsDNA)
DNA 1: TTGCATGTGCGGATATATATATGTGGAACCACCTTG
DNA 2: CAAGGTGGTTCCACATATATATATCCGCACATGCAA
B11: motif-23 (dsDNA)
DNA 1: CTATTATCACTATTGCTTTGCTTCCTCAAAACCTTCATTCGA
DNA 2: TCGAATGAAGGTTTTGAGGAAGCAAAGCAATAGTGATAATAG
B12: motif-29 (Hox-Exd consensus) (dsDNA)
DNA 1: CTCAAGCGCGTGATGAATGTAATCTTCG
DNA 2: CGAAGATTACATTCATCACGCGCTTGAG
B13: motif-30 Grh2 mutant (dsDNA)
DNA 1: GAAACAGGATAACGATAACTAATCC
DNA 2: GGATTAGTTATCGTTATCCTGTTTC
B14: motif-30 Hox1 mutant (dsDNA)
DNA 1: GAAACAGGAGAACCATAACTAATCC
DNA 2: GGATTAGTTATGGTTCTCCTGTTTC

These binders were tested against T2, AbdA (Hox) (UniProt P29555 261-590) (assay: EMSA; EMSA, 20 ul, 30 min, room temperature; 5X buffer as printed: 20% glycerol, 1 mg/ml BSA, 2.5 mM EDTA, '50mM 1M tris' pH 7.5, 50 mM KCl, 5 mM MgCl2, 2.5 mM DTT, 90 ug/ml poly(dI-dC); proteins 100-200 ng). Conditions: protein: recombinant; tags: 6xHis.
T2 sequence (P29555 261-590): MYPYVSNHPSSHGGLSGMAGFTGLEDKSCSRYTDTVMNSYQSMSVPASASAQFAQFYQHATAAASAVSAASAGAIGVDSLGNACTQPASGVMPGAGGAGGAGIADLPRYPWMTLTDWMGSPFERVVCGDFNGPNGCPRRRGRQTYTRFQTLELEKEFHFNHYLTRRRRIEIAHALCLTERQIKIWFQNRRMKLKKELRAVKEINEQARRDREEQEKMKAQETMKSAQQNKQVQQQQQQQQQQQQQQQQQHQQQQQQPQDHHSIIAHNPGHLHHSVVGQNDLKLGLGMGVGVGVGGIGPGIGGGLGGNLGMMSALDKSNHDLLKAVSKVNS
B1: no binding.
B2: no binding.
B3: binds.
B4: binds.

What follows are binders tested against T3, AbdA (Hox);Exd/Hth-HM;Grh (Drosophila melanogaster?;Drosophila …, UniProt P29555;P40427;O46339;P13002 261-590;1-376;127-211;551-1333, ||) in the same assay as above. Conditions: protein: recombinant;recombinant;recombinant; tags: 6xHis;6xHis;6xHis; copies: 1;1;1;2.
Target sequence in this assay (P29555 261-590, chain 1 of 4, one chain of several): as the sequence (P29555 261-590) above
Target sequence in this assay (P13002 551-1333, chain 4 of 4, one chain of several): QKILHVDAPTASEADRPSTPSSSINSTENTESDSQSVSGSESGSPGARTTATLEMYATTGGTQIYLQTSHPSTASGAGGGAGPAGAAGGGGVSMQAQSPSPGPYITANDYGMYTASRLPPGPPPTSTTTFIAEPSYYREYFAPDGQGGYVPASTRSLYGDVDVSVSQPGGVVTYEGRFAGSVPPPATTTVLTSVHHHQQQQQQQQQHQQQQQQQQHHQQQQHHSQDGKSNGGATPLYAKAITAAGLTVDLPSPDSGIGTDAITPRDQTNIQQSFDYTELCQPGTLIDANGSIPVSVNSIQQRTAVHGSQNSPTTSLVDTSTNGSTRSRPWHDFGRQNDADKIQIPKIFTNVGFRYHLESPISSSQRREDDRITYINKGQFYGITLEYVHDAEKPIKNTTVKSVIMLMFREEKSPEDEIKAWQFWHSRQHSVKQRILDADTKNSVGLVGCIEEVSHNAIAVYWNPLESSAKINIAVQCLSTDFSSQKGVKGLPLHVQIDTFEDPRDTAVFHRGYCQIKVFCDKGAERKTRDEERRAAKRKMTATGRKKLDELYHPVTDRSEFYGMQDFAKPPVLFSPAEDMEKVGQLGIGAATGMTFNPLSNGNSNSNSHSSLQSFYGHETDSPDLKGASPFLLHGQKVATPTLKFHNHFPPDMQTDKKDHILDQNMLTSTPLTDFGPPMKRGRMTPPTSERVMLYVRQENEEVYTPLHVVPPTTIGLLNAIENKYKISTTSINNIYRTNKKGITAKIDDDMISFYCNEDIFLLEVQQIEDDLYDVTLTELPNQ
B5: binds.
B6: no binding.
B2: no binding.
B7: no binding.
B8: binds.
B9: no binding.
B3: no binding.
B10: binds.
B4: no binding.

The binders below were run against AbdA (Hox);Grh (Drosophila melanogaster?;Drosophila …, UniProt P29555;P13002 261-590;551-1333, |) in the same assay as above. Conditions: protein: recombinant;recombinant; tags: 6xHis;6xHis; copies: 1;2.
Chain of AbdA (Hox);Grh (P29555 261-590, chain 1 of 2): as the sequence (P29555 261-590) above
Chain of AbdA (Hox);Grh (P13002 551-1333, chain 2 of 2): as the sequence (P13002 551-1333, chain 4 of 4, one chain of several) above
B5: binds.
B6: binds.
B1: no binding.
B2: no binding.
B9: binds.
B4: binds.

Each binder was assayed against T4, AbdA (Hox);Exd/Hth-HM (Drosophila melanogaster?;Drosophila …, UniProt P29555;P40427;O46339 261-590;1-376;127-211, |) in the same assay as above. Conditions: protein: recombinant;recombinant; tags: 6xHis;6xHis; copies: 1;1;1.
B5: binds.
B6: no binding.
B1: no binding.
B2: no binding.
B11: binds.
B7: binds.
B8: binds.
B9: binds.
B12: binds.
B3: binds.
B10: binds.
B4: binds.

What follows are binders tested against T5, Grh (UniProt P13002 551-1333) in the same assay as above. Conditions: protein: recombinant; tags: 6xHis; chain copies: 2.
T5 sequence (P13002 551-1333): as the sequence (P13002 551-1333, chain 4 of 4, one chain of several) above
B5: binds.
B6: binds.
B1: binds.
B11: binds.
B7: binds.
B8: binds.
B9: binds.
B12: no binding.
B3: binds.
B10: binds.
B4: binds.

These binders were tested against T1, Exd/Hth-HM in the same assay as above. Conditions: protein: recombinant; tags: 6xHis; copies: 1;1.
B10: binds.
B4: binds.

Each binder was assayed against T2, AbdA (Hox) (assay: EMSA; 100 and 200 ng; EMSA, 20 ul, 30 min, room temperature; 5X buffer as printed: 20% glycerol, 1 mg/ml BSA, 2.5 mM EDTA, '50mM 1M tris' pH 7.5, 50 mM KCl, 5 mM MgCl2, 2.5 mM DTT, 90 ug/ml poly(dI-dC); proteins 100-200 ng). Conditions: protein: recombinant; tags: 6xHis.
B5: binds.

These binders were tested against T5, Grh (assay: EMSA; no significant decrease; EMSA, 20 ul, 30 min, room temperature; 5X buffer as printed: 20% glycerol, 1 mg/ml BSA, 2.5 mM EDTA, '50mM 1M tris' pH 7.5, 50 mM KCl, 5 mM MgCl2, 2.5 mM DTT, 90 ug/ml poly(dI-dC); proteins 100-200 ng). Conditions: protein: recombinant; tags: 6xHis; chain copies: 2.
B13: binds.

What follows are binders tested against T4, AbdA (Hox);Exd/Hth-HM (assay: EMSA; intact in text; slightly reduced per legend; EMSA, 20 ul, 30 min, room temperature; 5X buffer as printed: 20% glycerol, 1 mg/ml BSA, 2.5 mM EDTA, '50mM 1M tris' pH 7.5, 50 mM KCl, 5 mM MgCl2, 2.5 mM DTT, 90 ug/ml poly(dI-dC); proteins 100-200 ng). Conditions: protein: recombinant;recombinant; tags: 6xHis;6xHis; copies: 1;1;1.
Target sequence in this assay (P29555 261-590, one chain of several): as the sequence (P29555 261-590) above
B14: binds.

The binders below were run against T3, AbdA (Hox);Exd/Hth-HM;Grh (assay: EMSA; intact; slightly reduced intensity per legend; EMSA, 20 ul, 30 min, room temperature; 5X buffer as printed: 20% glycerol, 1 mg/ml BSA, 2.5 mM EDTA, '50mM 1M tris' pH 7.5, 50 mM KCl, 5 mM MgCl2, 2.5 mM DTT, 90 ug/ml poly(dI-dC); proteins 100-200 ng). Conditions: protein: recombinant;recombinant;recombinant; tags: 6xHis;6xHis;6xHis; copies: 1;1;1;2.
Target sequence in this assay (P29555 261-590, chain 1 of 2): as the sequence (P29555 261-590) above
Target sequence in this assay (P13002 551-1333, chain 4 of 2): as the sequence (P13002 551-1333, chain 4 of 4, one chain of several) above
B13: binds.

These binders were tested against T3, AbdA (Hox);Exd/Hth-HM;Grh (assay: EMSA; completely abolished in text; largely per legend; EMSA, 20 ul, 30 min, room temperature; 5X buffer as printed: 20% glycerol, 1 mg/ml BSA, 2.5 mM EDTA, '50mM 1M tris' pH 7.5, 50 mM KCl, 5 mM MgCl2, 2.5 mM DTT, 90 ug/ml poly(dI-dC); proteins 100-200 ng). Conditions: protein: recombinant;recombinant;recombinant; tags: 6xHis;6xHis;6xHis; copies: 1;1;1;2.
Target sequence in this assay (P29555 261-590, chain 1 of 2): as the sequence (P29555 261-590) above
Target sequence in this assay (P13002 551-1333, chain 4 of 2): as the sequence (P13002 551-1333, chain 4 of 4, one chain of several) above
B1: no binding.

The binders below were run against T1, Exd/Hth-HM (assay: EMSA; 200 ng; another sentence claims strong binding of each protein; EMSA, 20 ul, 30 min, room temperature; 5X buffer as printed: 20% glycerol, 1 mg/ml BSA, 2.5 mM EDTA, '50mM 1M tris' pH 7.5, 50 mM KCl, 5 mM MgCl2, 2.5 mM DTT, 90 ug/ml poly(dI-dC); proteins 100-200 ng). Conditions: protein: recombinant; tags: 6xHis; copies: 1;1.
B5: no binding.

Reference: article PMC5667929, “Combinatorial action of Grainyhead, Extradenticle and Notch in regulating Hox mediated apoptosis in Drosophila larval CNS”
